Laboratory results reported in patent publication US8242083B2, “Kinase substrates” (PerkinElmer Health Sciences, Inc., priority 2008, dated 2012).

How the values were obtained:
Format in all cases: biochemical
[1] = target: T1, EphB4 (Homo sapiens, UniProt P54760); test: TR-FRET kinase assay, EphB4; conditions: Kinase Concentration 0.5 nM; 50 nM ULight-labeled substrate, 200 micromolar ATP, 2 hours
T1 sequence (P54760 16-987): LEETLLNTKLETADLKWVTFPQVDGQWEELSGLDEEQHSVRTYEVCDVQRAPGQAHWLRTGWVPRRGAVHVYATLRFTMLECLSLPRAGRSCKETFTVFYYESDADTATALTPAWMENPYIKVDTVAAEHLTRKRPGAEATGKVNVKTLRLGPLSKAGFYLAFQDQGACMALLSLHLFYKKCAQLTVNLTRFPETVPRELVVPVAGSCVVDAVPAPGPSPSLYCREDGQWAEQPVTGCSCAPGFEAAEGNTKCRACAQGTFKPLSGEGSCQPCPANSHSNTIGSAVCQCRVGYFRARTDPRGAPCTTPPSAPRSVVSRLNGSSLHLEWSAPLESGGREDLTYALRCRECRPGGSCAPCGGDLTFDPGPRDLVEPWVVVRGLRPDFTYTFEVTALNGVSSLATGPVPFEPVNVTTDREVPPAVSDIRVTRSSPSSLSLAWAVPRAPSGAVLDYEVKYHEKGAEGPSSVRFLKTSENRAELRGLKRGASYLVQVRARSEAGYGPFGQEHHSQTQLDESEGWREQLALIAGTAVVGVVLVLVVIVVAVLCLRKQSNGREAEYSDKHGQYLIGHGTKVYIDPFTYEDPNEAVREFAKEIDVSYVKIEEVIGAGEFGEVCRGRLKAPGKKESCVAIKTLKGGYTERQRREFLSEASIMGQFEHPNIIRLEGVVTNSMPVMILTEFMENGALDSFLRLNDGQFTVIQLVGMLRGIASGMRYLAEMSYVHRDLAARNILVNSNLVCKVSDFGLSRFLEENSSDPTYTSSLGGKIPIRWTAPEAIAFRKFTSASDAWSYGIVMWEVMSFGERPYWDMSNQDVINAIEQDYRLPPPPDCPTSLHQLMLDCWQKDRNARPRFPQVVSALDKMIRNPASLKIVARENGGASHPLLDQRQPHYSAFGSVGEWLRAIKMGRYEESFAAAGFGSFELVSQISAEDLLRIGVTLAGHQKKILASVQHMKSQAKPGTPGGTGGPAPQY
Method: (§1) TR-FRET kinase assays are performed under standardized conditions: various individual kinases are incubated with 50 nM of kinase substrate BRB1 labeled with the TR-FRET acceptor dye ULight (PerkinElmer) and 200 micromolar ATP in 10 μL of kinase assay buffer (50 mM HEPES pH7.5, 10 mM MgCl2, 3 mM MnCl2, 1 mM EGTA, 2 mM DTT and 0.01% Tween-20) for 2 hours at room temperature. Reactions are stopped with EDTA, and anti-phospho-tyrosine antibodies (clone PT66) labeled with the TR-FRET europium chelate donor dye are added to a final concentration of 2 nM in a final volume of 20 μL. The TR-FRET signal emitted at 665 nm is read one hour after the addition of antibodies using a TR-FRET plate reader such as the Envision® Multilabel Plate reader (PerkinElmer). The emitted signal at 665 nm is proportional to the extent of peptide phosphorylation, Control reactions indicative of background are performed excluding ATP from the reaction.
(§2) Assay conditions are identical to those used described for FIG. 1.

[2] = target: PDGFRβ (Homo sapiens, UniProt P09619); test: TR-FRET kinase assay, PDGFRβ; conditions: Kinase Concentration 0.25 nM; 50 nM ULight-labeled substrate, 200 micromolar ATP, 2 hours
Sequence of PDGFRβ (P09619 33-1106, species assumed): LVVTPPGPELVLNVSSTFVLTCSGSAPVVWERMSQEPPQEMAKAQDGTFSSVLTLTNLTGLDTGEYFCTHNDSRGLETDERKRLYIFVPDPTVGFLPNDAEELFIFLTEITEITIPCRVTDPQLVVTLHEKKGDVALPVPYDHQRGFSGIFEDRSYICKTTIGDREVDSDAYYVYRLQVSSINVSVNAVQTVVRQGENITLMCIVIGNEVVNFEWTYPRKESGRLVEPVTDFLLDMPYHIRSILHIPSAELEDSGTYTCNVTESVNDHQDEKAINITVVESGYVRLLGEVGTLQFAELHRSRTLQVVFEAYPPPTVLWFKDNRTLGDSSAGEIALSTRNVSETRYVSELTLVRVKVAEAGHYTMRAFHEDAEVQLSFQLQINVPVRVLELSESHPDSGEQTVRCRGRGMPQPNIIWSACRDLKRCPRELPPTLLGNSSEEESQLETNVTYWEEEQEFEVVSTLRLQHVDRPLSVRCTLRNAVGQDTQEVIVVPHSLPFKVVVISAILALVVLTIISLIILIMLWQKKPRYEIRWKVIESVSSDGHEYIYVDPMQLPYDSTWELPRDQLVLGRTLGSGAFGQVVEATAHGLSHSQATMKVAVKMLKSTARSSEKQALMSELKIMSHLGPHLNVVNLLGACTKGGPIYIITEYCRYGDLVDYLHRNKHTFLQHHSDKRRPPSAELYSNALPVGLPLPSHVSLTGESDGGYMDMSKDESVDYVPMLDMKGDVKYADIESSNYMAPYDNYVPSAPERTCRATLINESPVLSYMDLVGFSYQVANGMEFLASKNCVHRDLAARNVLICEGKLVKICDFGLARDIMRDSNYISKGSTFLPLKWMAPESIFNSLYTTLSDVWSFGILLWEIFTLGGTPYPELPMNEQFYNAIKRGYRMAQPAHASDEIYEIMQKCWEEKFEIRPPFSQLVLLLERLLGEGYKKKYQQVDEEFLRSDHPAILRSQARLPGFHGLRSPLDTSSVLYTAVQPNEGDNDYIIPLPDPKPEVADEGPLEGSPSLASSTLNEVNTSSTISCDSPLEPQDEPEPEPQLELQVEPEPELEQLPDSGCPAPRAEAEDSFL
Method: as §1, §2

[3] = target: EphA2 (Homo sapiens, UniProt P29317); test: TR-FRET kinase assay, EphA2; conditions: Kinase Concentration 0.25 nM; 50 nM ULight-labeled substrate, 200 micromolar ATP, 2 hours
Method: as §1, §2

[4] = target: HCK (Homo sapiens, UniProt P08631); test: TR-FRET kinase assay, HCK; conditions: Kinase Concentration 0.25 nM; 50 nM ULight-labeled substrate, 200 micromolar ATP, 2 hours
Sequence of HCK (P08631 whole entry, species assumed): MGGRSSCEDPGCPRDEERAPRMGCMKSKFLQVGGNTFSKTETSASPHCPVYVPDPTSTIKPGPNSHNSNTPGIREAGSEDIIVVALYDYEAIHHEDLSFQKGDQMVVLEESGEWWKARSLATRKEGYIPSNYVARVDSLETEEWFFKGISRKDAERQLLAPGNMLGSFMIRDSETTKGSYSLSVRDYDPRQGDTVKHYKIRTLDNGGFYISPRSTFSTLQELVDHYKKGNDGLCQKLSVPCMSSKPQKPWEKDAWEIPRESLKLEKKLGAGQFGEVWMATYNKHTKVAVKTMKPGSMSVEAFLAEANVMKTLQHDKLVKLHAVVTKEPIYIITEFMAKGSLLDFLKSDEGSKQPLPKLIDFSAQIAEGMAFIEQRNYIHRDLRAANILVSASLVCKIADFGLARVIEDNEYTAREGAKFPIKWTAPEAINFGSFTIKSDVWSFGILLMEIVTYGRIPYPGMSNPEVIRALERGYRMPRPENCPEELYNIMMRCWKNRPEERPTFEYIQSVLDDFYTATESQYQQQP
Method: as §1, §2

[5] = target: EphA4 (Homo sapiens, UniProt P54764); test: TR-FRET kinase assay, EphA4; conditions: Kinase Concentration 0.5 nM; 50 nM ULight-labeled substrate, 200 micromolar ATP, 2 hours
Sequence of EphA4 (P54764 20-986, species assumed): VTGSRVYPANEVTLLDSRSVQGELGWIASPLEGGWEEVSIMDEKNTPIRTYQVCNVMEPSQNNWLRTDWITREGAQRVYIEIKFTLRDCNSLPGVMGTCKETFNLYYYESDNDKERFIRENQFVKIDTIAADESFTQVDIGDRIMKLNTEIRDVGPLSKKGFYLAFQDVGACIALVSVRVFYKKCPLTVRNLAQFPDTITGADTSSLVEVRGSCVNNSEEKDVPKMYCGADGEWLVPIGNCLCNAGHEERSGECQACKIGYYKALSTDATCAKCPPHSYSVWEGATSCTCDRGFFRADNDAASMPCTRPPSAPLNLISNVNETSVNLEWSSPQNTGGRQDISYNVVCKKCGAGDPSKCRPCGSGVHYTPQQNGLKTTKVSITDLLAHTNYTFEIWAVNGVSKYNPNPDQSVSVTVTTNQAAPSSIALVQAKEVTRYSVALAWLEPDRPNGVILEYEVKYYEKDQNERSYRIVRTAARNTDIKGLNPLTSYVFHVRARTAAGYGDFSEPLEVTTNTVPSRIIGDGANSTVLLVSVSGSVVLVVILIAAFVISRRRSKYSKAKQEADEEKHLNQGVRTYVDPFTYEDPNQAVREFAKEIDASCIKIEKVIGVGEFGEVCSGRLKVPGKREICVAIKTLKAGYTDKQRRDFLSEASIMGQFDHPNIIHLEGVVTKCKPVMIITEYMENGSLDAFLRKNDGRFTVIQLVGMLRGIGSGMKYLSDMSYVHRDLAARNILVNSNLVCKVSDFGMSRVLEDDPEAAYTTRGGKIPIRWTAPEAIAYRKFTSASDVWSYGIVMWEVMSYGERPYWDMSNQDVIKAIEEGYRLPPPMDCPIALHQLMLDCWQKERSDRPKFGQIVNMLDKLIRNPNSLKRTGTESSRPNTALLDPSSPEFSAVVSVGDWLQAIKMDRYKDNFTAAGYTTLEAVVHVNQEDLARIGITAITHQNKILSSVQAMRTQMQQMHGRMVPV
Method: as §1, §2

[6] = target: T2, DDR2 (Homo sapiens, UniProt Q16832); test: TR-FRET kinase assay, DDR2; conditions: Kinase Concentration 0.5 nM; 50 nM ULight-labeled substrate, 200 micromolar ATP, 2 hours
T2 sequence (Q16832 22-855): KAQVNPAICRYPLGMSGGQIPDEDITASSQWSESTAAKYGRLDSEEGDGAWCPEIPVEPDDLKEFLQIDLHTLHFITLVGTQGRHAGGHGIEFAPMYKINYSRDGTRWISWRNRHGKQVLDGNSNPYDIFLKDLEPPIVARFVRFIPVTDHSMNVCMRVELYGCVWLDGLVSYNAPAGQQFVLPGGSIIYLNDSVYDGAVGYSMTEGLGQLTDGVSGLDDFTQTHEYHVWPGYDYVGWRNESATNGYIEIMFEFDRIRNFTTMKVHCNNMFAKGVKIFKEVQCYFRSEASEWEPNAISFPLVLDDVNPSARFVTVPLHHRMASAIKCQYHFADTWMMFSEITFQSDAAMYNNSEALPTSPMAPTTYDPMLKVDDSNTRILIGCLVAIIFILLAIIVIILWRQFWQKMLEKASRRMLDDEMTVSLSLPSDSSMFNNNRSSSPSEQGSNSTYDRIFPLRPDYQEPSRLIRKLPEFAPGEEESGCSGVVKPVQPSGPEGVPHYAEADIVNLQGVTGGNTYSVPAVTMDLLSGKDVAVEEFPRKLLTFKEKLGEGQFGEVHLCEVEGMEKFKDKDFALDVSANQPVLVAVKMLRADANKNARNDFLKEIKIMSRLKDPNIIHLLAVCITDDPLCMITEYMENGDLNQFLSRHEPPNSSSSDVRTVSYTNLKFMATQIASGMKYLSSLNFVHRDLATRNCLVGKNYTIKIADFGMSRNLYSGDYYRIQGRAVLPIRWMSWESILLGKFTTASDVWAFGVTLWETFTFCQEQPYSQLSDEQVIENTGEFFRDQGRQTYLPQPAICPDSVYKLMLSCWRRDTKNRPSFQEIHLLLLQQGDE
Method: as §1, §2

## C AYE AYE AYE K EYA EYA EYA K AYA EYE R (CAYEAYEAYEKEYAEYAEYAKAYAEYER; tyrosine kinase substrate peptide) [BRB1]
[1]
  Signal to Noise ratio with BRB1 Peptide: 29.8
[2]
  Signal to Noise ratio with BRB1 Peptide: 4.7
[3]
  Signal to Noise ratio with BRB1 Peptide: 26.9
[4]
  Signal to Noise ratio with BRB1 Peptide: 29.7
[5]
  Signal to Noise ratio with BRB1 Peptide: 31.5
[6]
  Signal to Noise ratio with BRB1 Peptide: 1.0
